One substance from US11160886B2, “Method for labeling of sensitive and thermosensitive targeting biomolecules with technetium based compounds” (BRACCO IMAGING SPA, priority 2016, dated 2021) can be followed below.

Series [1] in a line: Challenge reactions (transchelation) with excess Cys, GSH or EDTA, RCP by HPLC. Format: physicochemical. To be noted: Cys 10 mM; for % RCP after incubation with excess Cys: 37° C. As to the method: The transchelation studies were performed for some compounds monitoring by HPLC the radiochemical purity (RCP) of the complexes in presence of an excess of exchanging ligands over the time. The experiments were performed in triplicate.
Challenge experiments were carried out on the purified [^99mTc(N)(PNP3OH)]-labeled small size compounds (complex 1, complex 2, complex 9 and complex 10) using an excess of glutathione (GSH) or Cys. An aliquot (50 μl) of an aqueous stock solution of cysteine hydrochloride (10 mM; 1 mM) was added to a propylene test tube containing PB (250 μl, 0.2 M; pH 7.4), water (100 μl) and the selected [^99mTc(N)(PNP3OH)]-compound (100 μl). The mixture was vortexed and incubated at 37° C. for 24 h. A control reaction containing an equal volume of water, instead of cysteine hydrochloride, was studied in parallel. At 30 min, 1, 3 and 24 h, aliquots of the reaction mixture were withdrawn and analyzed by HPLC chromatography. A similar procedure was applied using GSH (50 μl, 10 mM) as challenge ligand.
For [^99mTc(N)(PNP3OH)(Cys-Gly-Lys-Gly-ApoMb)]^+ (“Cys-Gly-Lys-Gly” disclosed as SEQ ID NO: 1) additional experiments were conducted using EDTA (50 μl, 10 mM) as exchanging ligand.

Series [2] can be described thus: Sera and homogenates stability. The following applies: 37° C. Format: in vitro ADME, human and rat. As for the experimental part:
Sera and Homogenates Stability.
The in vitro stability of complex 1, complex 2, complex 9 and complex 11 was evaluated by monitoring the RCP at different time points using the following procedures. In a propylene test tube 50 μl of purified [^99mTc(N)(PNP3OH)]-compound were added to: a) 450 μl of human serum, b) 450 μl of rat serum, c) 450 μl of homogenate of rat liver and d) 450 μl of homogenate of rat kidneys. The resulting mixture was incubated at 37° C. for 4 h.
The sample was loaded onto a cartridge, preconditioned with MeOH (1 ml) and equilibrated with water (1 ml), and rinsed with MeOH 5% (3 ml). The activity was eluted with a mixture of EtOH/saline 60% (1 ml). Each fraction was collected and the activity measured using a counter (Cobra II, Packard) to determinate the elution profile. 80% of the loaded activity was collected in the elution fraction. An aliquot of this solution (100 μl) was analyzed by HPLC to assess the degradation of the ^99mTc(N)-complexes (FIG. 11).

Series [3] has as its system αvβ3 positive M21 and αvβ3 negative M21L cell lines. Kind of series: Cell uptake and internalization. To be noted: M21 and M21L cells, 37° C., 90 min. Format: cell-based, human. As for the experimental part: Cell Studies of complex 9 were conducted on M21 and M21L cells grown in RPMI1640 (Gibco Life Technologies). Expression of αvβ3 and of αvβ5 in the cells lines was analyzed by flow cytometry.
Cellular uptakes of the radiolabeled peptide, were assessed in suspension at 37° C. in human melanoma αvβ3 positive M21 and negative M21L cell lines. Preliminary studies were performed in order to set the experimental conditions to avoid cell damage and/or death during uptake experiments. […] Afterward, 1 ml of the cell suspension (1×10^6 cells/ml) was incubated with intermittent agitation with 10 μCi (10 μL) of ^99mTc complexes. At 90 min, the tubes were vortexed, the cells were transferred in Eppendorf microcentrifuge tube (1.5 ml) and the incubation was interrupted by centrifugation (3000 rpm for 5 min at 10° C.). […] After centrifugation (3000 rpm for 10 min at 10° C.) the supernatant was separated from the pellet, each fraction was collected, placed in a separated counting tube and the activity was determined using a counter (Cobra II, Packard) to determinate both the cell uptake and internalized fraction.
The uptake of complexes is expressed as percentage cell uptake of the total activity on 10^6 cells (% cell uptake/10^6 cells). […]

Series [4] is described as follows: Isomeric conversion over 24 h at 37° C. Format: physicochemical. As to the method: Before the experiments for both complex 11 and complex 9, the two isomers were isolated by HPLC and their isomeric conversion was assessed over 24 h at 37° C.
In addition, a faster b vs a change was noticed. Therefore, for the radiolabeled peptide the mixture of the two isomeric forms in ratio 70/30 was directly utilized for receptor affinity studies.

“[^99mTc(N)(PNP3OH)(Cys-cRGDfK)]^+ [Complex 9]”: the figures for the “% RCP after incubation with excess Cys” value in series [1] (3 h) and in series [1] (24 h) were 75.93% and 27.31%, respectively. Also, the “Stability toward Cys transchelation relative to neutral complexes” value in series [1] (versus complex 1 and complex 11) was “higher stability toward Cys transchelation”. The Sera stability result in series [2] (human and rat sera, 3 h) is reported as “high sera stability”. Besides, the “In vitro stability (HPLC peaks versus control)” value in series [2] (human serum, rat serum, rat kidneys homogenate, rat liver homogenate, 2 h) is “remarkable in vitro stability”. In series [3], the “Recognition by molecular target (cellular uptake, FIG. 10)” value is reported as “recognized by the corresponding molecular target”. The “Isomeric conversion a vs b” value in series [4] was “reversible a vs b and b vs a conversion”.
